The text below walks through data of PMC11074293 (2024).

Targets include CUL3^WT-RBX1 (human, UniProt Q13618 1-768; P62877 1-108); CUL3^Δ1–24-RBX1 (human, UniProt Q13618 25-768; P62877 1-108); CUL3^Δ1–13-RBX1 (human, UniProt Q13618 14-768; P62877 1-108).
What all share (test): ITC
In general terms: Isothermal titration calorimetry measures the heat released or taken up as one component is titrated into another.

Chain of CUL3^Δ1–24-RBX1 (Q13618 25-768, stated change not applied, chain 1 of 2): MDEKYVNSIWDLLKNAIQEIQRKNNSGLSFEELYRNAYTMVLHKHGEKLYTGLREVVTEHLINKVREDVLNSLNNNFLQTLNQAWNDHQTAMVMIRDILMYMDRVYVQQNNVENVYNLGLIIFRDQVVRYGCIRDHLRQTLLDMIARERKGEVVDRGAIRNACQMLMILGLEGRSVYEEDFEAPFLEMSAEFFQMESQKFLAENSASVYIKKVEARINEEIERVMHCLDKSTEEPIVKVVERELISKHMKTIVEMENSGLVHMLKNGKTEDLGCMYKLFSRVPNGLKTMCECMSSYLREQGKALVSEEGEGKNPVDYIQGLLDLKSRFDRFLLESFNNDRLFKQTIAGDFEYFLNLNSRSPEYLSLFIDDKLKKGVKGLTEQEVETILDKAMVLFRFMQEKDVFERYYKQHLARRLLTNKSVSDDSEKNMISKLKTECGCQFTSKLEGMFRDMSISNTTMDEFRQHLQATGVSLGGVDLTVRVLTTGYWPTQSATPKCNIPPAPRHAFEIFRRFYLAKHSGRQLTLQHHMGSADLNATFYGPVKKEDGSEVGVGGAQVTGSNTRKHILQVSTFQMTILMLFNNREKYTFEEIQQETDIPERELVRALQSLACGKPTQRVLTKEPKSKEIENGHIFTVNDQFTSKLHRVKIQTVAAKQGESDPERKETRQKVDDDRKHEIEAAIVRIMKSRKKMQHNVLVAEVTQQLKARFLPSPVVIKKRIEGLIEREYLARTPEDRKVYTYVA
Chain of CUL3^Δ1–24-RBX1 (P62877 whole entry, stated change not applied, chain 2 of 2): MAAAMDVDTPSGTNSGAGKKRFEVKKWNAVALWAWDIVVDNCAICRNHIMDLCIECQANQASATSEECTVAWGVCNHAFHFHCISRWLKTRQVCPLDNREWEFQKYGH
Chain of CUL3^Δ1–13-RBX1 (Q13618 14-768, stated change not applied, chain 1 of 2): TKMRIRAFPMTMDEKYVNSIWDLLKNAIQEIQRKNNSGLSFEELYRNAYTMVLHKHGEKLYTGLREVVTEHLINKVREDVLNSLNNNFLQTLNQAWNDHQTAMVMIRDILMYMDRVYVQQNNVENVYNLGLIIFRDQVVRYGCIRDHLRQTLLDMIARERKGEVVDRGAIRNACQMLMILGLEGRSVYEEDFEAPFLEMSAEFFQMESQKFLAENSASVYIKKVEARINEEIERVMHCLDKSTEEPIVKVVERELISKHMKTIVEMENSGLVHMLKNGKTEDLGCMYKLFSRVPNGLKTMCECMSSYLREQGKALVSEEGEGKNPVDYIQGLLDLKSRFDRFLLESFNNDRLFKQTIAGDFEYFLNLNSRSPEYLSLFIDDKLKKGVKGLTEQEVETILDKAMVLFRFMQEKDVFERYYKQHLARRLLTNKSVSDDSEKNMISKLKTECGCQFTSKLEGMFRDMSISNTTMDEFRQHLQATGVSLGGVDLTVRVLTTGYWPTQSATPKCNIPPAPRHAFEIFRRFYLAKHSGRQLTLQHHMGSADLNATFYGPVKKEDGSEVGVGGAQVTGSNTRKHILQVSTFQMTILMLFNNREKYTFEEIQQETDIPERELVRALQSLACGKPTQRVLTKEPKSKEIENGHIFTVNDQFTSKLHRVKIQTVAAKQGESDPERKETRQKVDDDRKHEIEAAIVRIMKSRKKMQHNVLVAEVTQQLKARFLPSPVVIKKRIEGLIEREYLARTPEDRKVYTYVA
Chain of CUL3^Δ1–13-RBX1 (P62877 whole entry, stated change not applied, chain 2 of 2): as the sequence (P62877 whole entry, stated change not applied, chain 2 of 2) above
Chain of CUL3^WT-RBX1 (Q13618 whole entry, chain 1 of 2): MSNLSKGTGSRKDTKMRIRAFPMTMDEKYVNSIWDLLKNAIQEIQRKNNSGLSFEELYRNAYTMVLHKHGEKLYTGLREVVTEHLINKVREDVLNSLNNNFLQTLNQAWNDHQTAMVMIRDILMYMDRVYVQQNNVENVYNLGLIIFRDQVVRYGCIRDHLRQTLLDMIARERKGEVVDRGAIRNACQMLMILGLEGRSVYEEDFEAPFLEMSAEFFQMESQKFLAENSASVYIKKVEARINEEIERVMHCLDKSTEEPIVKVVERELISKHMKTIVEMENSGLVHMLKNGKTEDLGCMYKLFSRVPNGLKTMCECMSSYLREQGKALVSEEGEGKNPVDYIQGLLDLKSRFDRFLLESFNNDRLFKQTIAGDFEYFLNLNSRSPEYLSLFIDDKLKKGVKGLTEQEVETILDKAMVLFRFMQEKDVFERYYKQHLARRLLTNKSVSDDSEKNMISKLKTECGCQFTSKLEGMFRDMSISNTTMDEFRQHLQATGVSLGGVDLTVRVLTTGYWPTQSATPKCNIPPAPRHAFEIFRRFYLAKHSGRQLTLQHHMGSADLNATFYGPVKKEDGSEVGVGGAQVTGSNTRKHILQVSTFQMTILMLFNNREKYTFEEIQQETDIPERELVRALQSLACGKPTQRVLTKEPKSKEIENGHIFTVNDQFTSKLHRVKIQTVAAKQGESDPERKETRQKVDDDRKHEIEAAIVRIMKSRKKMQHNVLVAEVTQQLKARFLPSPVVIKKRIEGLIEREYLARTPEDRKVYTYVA
Chain of CUL3^WT-RBX1 (P62877 whole entry, chain 2 of 2): as the sequence (P62877 whole entry, stated change not applied, chain 2 of 2) above

B1: KLHL22^1–178 (domain or fragment)
chain: MAEEQEFTQLCKLPAQPSHPHCVNNTYRSAQHSQALLRGLLALRDSGILFDVVLVVEGRHIEAHRILLAASCDYFRGMFAGGLKEMEQEEVLIHGVSYNAMCQILHFIYTSELELSLSNVQETLVAACQLQIPEIIHFCCDFLMSWVDEENILDVYRLAELFDLSRLTEQLDTYILKN
As for B1, the Kd was determined as 60 nM in the test with CUL3^WT-RBX1, 483 nM in the test with CUL3^Δ1–24-RBX1 and 176 nM in the test with CUL3^Δ1–13-RBX1.

Usually Kd stands for the equilibrium constant for the complex coming apart.
